Data reported in PMC9936548, “Repertoire of Computationally Designed Peroxygenases for Enantiodivergent C–H Oxyfunctionalization Reactions” (Journal of the American Chemical Society, 2023).

Substrate: CCc1ccccc1
Assay: purified protein
Format: biochemical, Cyclocybe aegerita
[1] = 2 mM H2O2, 100 mM phosphate pH 7.0, design d2
[2] = 2 mM H2O2, 100 mM phosphate pH 7.0, design d4

B1: PaDa-I (evolved AaeUPO) (Cyclocybe aegerita; A359P/F242L/F354L/G284I/I291V/L110F/T235L/V100A/V118I/V287I) (protein)
chain: EPGLPPGPLENSSAKLVNDEAHPWKPLRPGDIRGPCPGLNTLASHGYLPRNGVATPAQIINAVQEGFNFDNQAAIFATYAAHLVDGNLITDLLSIGRKTRLTGPDPPPPASVGGLNEHGTFEGDASMTRGDAFFGNNHDFNETLFEQLVDYSNRFGGGKYNLTVAGELRFKRIQDSIATNPNFSFVDFRFFLAYGETTLPANLFVDGRRDDGQLDMDAARSFFQFSRMPDDFFRAPSPRSITGIEVVVQAHPMQPGRNVGKINSYTVDPTSSDFSTPCLMYEKFVNITVKSLYPNPTVQLRKALNTNLDFLFQGVPAGCTQVFPYGRD
notes: laboratory-evolved secretion mutant PaDa-I; mature, no tag; evolved signal peptide (F12Y/A14V/R15G/A21D in leader); heme and structural Mg; expressed in Pichia pastoris, purified to homogeneity
Km [1]: 560 ± 200 µM
kcat [1]: 570 ± 119 s⁻¹
kcat/Km [1]: 1.02e+06 M⁻¹ s⁻¹

B2: PaDa-I (evolved AaeUPO) (Cyclocybe aegerita; A120I/F112L/F242L/F354L/G284N/I291V/L110F/V100A/V118I/V287T) (protein)
chain: EPGLPPGPLENSSAKLVNDEAHPWKPLRPGDIRGPCPGLNTLASHGYLPRNGVATPAQIINAVQEGFNLDNQAAIFITYAAHLVDGNLITDLLSIGRKTRLTGPDPPPPASVGGLNEHGTFEGDASMTRGDAFFGNNHDFNETLFEQLVDYSNRFGGGKYNLTVAGELRFKRIQDSIATNPNFSFVDFRFFTAYGETTLPANLFVDGRRDDGQLDMDAARSFFQFSRMPDDFFRAPSPRSNTGTEVVVQAHPMQPGRNVGKINSYTVDPTSSDFSTPCLMYEKFVNITVKSLYPNPTVQLRKALNTNLDFLFQGVAAGCTQVFPYGRD
notes: as for B1
Km [2]: 560 ± 200 µM
kcat [2]: 570 ± 119 s⁻¹
kcat/Km [2]: 1.02e+06 M⁻¹ s⁻¹
